B1: Large T antigen (Simian virus 40), P03070 (parent)
chain: MDKVLNREESLQLMDLLGLERSAWGNIPLMRKAYLKKCKEFHPDKGGDEEKMKKMNTLYKKMEDGVKYAHQPDFGGFWDATEIPTYGTDEWEQWWNAFNEENLFCSEEMPSSDDEATADSQHSTPPKKKRKVEDPKDFPSELLSFLSHAVFSNRTLACFAIYTTKEKAALLYKKIMEKYSVTFISRHNSYNHNILFFLTPHRHRVSAINNYAQKLCTFSFLICKGVNKEYLMYSALTRDPFSVIEESLPGGLKEHDFNPEEAEETKQVSWKLVTEYAMETKCDDVLLLLGMYLEFQYSFEMCLKCIKKEQPSHYKYHEKHYANAAIFADSKNQKTICQQAVDTVLAKKRVDSLQLTREQMLTNRFNDLLDRMDIMFGSTGSADIEEWMAGVAWLHCLLPKMDSVVYDFLKCMVYNIPKKRYWLFKGPIDSGKTTLAAALLELCGGKALNVNLPLDRLNFELGVAIDQFLVVFEDVKGTGGESRDLPSGQGINNLDNLRDYLDGSVKVNLEKKHLNKRTQIFPPGIVTMNEYSVPKTLQARFVKQIDFRPKDYLKHCLERSEFLLEKRIIQSGIALLLMLIWYRPVAEFAQSIQSRIVEWKERLDKEFSLSVYQKMKFNVAMGIGVLDWLRNSDDDDEDSQENADKNEDGGEKNMEDSGHETGIDSQSQGSFQAPQSSQSVHDHNQPYHICRGFTCFKKPPTPPPEPET

Variants of: B1
Details: with fbxw7_human FBXW7, Q969H0
Sequence of fbxw7_human FBXW7, Q969H0 (Q969H0 whole entry): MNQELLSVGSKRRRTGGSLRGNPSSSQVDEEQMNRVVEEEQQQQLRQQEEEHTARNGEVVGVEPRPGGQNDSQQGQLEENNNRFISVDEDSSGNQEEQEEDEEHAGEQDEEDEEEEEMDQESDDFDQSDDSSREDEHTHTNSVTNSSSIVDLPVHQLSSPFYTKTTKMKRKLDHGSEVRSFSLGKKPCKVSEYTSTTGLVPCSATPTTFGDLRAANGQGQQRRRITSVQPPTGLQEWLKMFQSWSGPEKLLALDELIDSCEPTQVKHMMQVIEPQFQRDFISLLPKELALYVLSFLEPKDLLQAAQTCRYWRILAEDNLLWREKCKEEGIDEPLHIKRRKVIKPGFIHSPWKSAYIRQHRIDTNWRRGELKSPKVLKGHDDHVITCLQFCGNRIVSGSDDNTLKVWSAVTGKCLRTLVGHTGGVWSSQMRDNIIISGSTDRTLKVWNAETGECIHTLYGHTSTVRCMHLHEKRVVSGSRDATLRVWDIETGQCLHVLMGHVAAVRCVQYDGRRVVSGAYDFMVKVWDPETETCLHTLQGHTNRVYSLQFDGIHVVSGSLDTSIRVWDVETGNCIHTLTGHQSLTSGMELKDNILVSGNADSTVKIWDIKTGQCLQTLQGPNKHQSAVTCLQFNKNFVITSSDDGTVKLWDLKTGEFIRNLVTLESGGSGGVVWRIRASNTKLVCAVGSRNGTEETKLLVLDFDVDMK
In the case of T701A, the “effect of a mutation on the interaction” value is reported as “decreasing interaction”.

Variants of: B1
Details: with fbw1b_human FBXW11, Q9UKB1
Sequence of fbw1b_human FBXW11, Q9UKB1 (Q9UKB1 whole entry): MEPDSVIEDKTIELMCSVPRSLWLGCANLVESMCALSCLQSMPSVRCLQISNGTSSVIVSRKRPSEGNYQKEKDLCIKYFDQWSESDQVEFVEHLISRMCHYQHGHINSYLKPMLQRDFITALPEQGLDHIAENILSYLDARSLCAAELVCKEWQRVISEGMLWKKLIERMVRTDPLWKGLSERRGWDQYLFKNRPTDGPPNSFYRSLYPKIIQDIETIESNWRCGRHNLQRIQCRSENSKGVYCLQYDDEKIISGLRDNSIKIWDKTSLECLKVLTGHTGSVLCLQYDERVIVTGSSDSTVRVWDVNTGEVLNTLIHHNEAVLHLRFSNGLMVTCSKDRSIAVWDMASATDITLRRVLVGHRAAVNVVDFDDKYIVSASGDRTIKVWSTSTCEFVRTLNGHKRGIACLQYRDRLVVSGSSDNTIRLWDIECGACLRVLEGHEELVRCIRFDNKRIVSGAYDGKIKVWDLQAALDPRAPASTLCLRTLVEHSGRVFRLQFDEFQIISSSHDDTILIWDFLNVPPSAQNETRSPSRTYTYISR
With T701A;E705A the “effect of a mutation on the interaction” value was “decreasing interaction”.

Variants of: B1
Details: with fbw1a_human BTRC
For T701A;E705D, the “effect of a mutation on the interaction” value was “decreasing interaction”.

Source: IntAct's records for PubMed 15611062
